Assay results: PMC4007762

Assays:
Conditions in all cases: reference: wild-type YFP-p120-1A; sites Y335
[1] = target: VAV2 (endogenous) (UniProt P52735); experiment: anti-YFP immunoprecipitation, VAV2 blot
[2] = target: cortactin (UniProt Q14247); experiment: anti-YFP immunoprecipitation, cortactin blot
[3] = target: E-cadherin (UniProt P12830); experiment: anti-YFP immunoprecipitation, E-cadherin blot

Substance: p120-1A (transfected YFP- or HA-tagged) (from UniProt P30999) Y335F
- binding against the reference [1]: weaker
- binding against the reference [2]: weaker
- binding against the reference [3]: stronger
